From the supplement of paper PMC9876800

System: peptide library, one residue held at a place counted from the S/T acceptor
Assay: relative phosphorylation of the sub-library (ratio to the mean residue at this position); higher = residue favoured
In short: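 Relative sub-library phosphorylation is a ratio to the mean residue at the same position. Purified recombinant kinases were incubated under kinase-specific conditions with biotinylated degenerate peptide sub-libraries, each fixing one residue at one position around a central Ser/Thr, using 50 μM peptide and 50 μM ATP spiked with γ-32P-ATP for 90 min. Spots captured on streptavidin membranes were phosphorimaged and quantified by densitometry.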

Sequence of TLK2, construct: aa388-end, human (Q86UE8 388-772, looked up): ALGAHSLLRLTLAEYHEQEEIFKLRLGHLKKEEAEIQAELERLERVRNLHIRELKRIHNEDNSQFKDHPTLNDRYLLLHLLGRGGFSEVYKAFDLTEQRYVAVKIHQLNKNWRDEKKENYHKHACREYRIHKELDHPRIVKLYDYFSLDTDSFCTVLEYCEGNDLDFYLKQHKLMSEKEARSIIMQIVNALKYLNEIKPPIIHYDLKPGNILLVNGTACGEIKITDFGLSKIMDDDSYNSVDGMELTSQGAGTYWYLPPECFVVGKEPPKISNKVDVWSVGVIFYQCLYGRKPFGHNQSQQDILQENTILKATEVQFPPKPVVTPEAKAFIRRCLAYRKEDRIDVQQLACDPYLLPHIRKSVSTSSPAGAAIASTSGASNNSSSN
Sequence of MAPKAPK3, construct: Full length, human (Q16644 whole entry, looked up): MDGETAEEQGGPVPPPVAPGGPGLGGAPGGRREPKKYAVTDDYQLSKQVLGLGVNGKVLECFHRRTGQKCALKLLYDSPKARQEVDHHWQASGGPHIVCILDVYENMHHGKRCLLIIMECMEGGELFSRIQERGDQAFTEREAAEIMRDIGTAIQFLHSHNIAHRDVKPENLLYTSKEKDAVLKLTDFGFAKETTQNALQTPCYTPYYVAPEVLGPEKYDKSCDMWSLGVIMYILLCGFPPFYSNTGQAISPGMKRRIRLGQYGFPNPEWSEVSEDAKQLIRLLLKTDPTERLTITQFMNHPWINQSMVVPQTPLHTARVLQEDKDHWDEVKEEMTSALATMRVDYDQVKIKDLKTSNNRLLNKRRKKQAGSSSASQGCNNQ
Sequence of VRK2, construct: Full length, human (Q86Y07 whole entry, looked up): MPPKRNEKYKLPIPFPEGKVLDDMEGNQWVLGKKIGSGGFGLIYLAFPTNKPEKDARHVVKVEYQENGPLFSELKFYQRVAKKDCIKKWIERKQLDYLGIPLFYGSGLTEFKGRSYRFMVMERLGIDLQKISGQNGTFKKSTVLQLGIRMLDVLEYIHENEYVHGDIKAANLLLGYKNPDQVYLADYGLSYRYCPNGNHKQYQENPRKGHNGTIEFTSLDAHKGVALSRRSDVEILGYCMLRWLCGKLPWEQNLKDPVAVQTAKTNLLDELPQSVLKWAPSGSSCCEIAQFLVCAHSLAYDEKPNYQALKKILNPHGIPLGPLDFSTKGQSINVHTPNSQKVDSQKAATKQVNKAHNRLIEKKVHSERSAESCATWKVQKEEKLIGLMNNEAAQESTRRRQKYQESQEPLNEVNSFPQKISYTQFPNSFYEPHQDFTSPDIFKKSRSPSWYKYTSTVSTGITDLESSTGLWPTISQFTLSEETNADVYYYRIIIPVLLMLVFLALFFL

TLK2, construct: aa388-end, human (from UniProt Q86UE8)
relative phosphorylation
Details | at +1 | at +2 | at +3 | at +4 | at -1 | at -2 | at -3 | at -4 | at -5
A fixed | 0.501 | 0.95 | 1.3 | 1.23 | 1.13 | 1.14 | 1.07 | 1.1 | 1.22
D fixed | 0.281 | 1.07 | 1.01 | 1.06 | 0.949 | 2.24 | 2 | 1.67 | 1.91
E fixed | 0.329 | 0.512 | 1.33 | 0.879 | 0.751 | 3.21 | 1.46 | 1.68 | 1.45
F fixed | 0.533 | 1.32 | 1.19 | 1.26 | 1.04 | 0.553 | 0.674 | 0.878 | 0.801
G fixed | 0.36 | 1.69 | 1.69 | 1.24 | 0.72 | 1.69 | 1.42 | 1.27 | 1.19
H fixed | 0.799 | 1.45 | 0.932 | 0.899 | 1.6 | 1.05 | 0.979 | 1.07 | 1.05
I fixed | 0.995 | 0.768 | 0.583 | 0.843 | 0.542 | 0.435 | 0.531 | 0.668 | 0.621
K fixed | 0.624 | 0.451 | 0.52 | 0.603 | 0.95 | 0.502 | 0.702 | 0.703 | 0.879
L fixed | 1.34 | 0.873 | 0.654 | 0.867 | 0.61 | 0.418 | 0.637 | 0.678 | 0.663
M fixed | 2.11 | 1.27 | 0.823 | 0.913 | 0.862 | 0.592 | 0.77 | 0.857 | 0.737
N fixed | 2.41 | 0.671 | 0.682 | 0.692 | 1.29 | 1.22 | 1.26 | 1.19 | 1.08
P fixed | 0.225 | 1.03 | 1.66 | 1.79 | 0.634 | 0.77 | 1.36 | 1.17 | 1
Q fixed | 2.67 | 1.19 | 0.765 | 0.782 | 1.23 | 1.06 | 0.972 | 0.852 | 0.865
R fixed | 1.53 | 0.482 | 0.483 | 0.506 | 0.827 | 0.499 | 0.743 | 0.674 | 0.814
V fixed | 1.06 | 0.675 | 0.814 | 0.944 | 0.807 | 0.495 | 0.584 | 0.684 | 0.72
W fixed | 0.686 | 1.62 | 1.42 | 1.35 | 1.58 | 0.5 | 0.953 | 1.06 | 1.1
Y fixed | 0.543 | 0.974 | 1.13 | 1.13 | 1.48 | 0.638 | 0.879 | 0.803 | 0.894
pThr fixed | 0.552 | 0.633 | 1.09 | 1.41 | 0.434 | 0.883 | 1.29 | 1.31 | 1.31
pTyr fixed | 0.65 | 1.52 | 1.94 | 1.76 | 1.4 | 2.55 | 1.35 | 1.36 | 1.4

CDK5, construct: Full length, human (from UniProt Q00535)
relative phosphorylation
Details | at +1 | at +2 | at +3 | at +4 | at -1 | at -2 | at -3 | at -4 | at -5
A fixed | 0.423 | 1.13 | 0.791 | 1.07 | 1.16 | 1.08 | 1.05 | 1.15 | 1.22
D fixed | 0.262 | 0.357 | 0.165 | 0.478 | 0.753 | 0.717 | 0.92 | 1.1 | 1.24
E fixed | 0.305 | 0.516 | 0.12 | 0.512 | 0.747 | 0.842 | 1.02 | 0.993 | 1.03
F fixed | 0.227 | 0.765 | 0.485 | 0.679 | 0.557 | 0.765 | 0.65 | 0.801 | 0.925
G fixed | 1.25 | 1.06 | 0.809 | 1.56 | 1.86 | 1.21 | 1.47 | 1.47 | 1.35
H fixed | 0.344 | 1.19 | 3.07 | 1.27 | 0.925 | 1.03 | 1.12 | 1.05 | 1.03
I fixed | 0.261 | 0.87 | 0.444 | 0.828 | 0.346 | 0.646 | 0.742 | 0.642 | 0.63
K fixed | 0.374 | 2.44 | 3.21 | 1.92 | 1.49 | 0.85 | 1.05 | 1.07 | 1.26
L fixed | 0.278 | 0.831 | 0.536 | 0.754 | 0.697 | 0.958 | 0.673 | 0.689 | 0.625
M fixed | 0.382 | 0.869 | 0.542 | 0.967 | 0.995 | 1.01 | 0.894 | 0.86 | 0.725
N fixed | 0.569 | 0.828 | 1.08 | 0.81 | 1.17 | 1.01 | 1.17 | 1 | 0.916
P fixed | 10.5 | 0.464 | 0.63 | 0.829 | 1.49 | 2.71 | 1.8 | 1.61 | 1.45
Q fixed | 0.492 | 0.971 | 0.636 | 1.05 | 1.24 | 0.998 | 1.06 | 0.952 | 0.979
R fixed | 0.373 | 2 | 3.14 | 1.57 | 1.48 | 0.788 | 1.06 | 0.988 | 1.07
V fixed | 0.377 | 0.926 | 0.397 | 0.904 | 0.568 | 0.788 | 0.75 | 0.695 | 0.757
W fixed | 0.285 | 0.763 | 0.463 | 0.957 | 0.722 | 0.786 | 0.811 | 1.1 | 0.766
Y fixed | 0.258 | 1.01 | 0.49 | 0.836 | 0.805 | 0.817 | 0.763 | 0.825 | 1.01
pThr fixed | 0.518 | 0.434 | 0.412 | 0.38 | 0.408 | 0.721 | 0.956 | 0.995 | 0.939
pTyr fixed | 0.513 | 0.44 | 0.344 | 0.453 | 0.548 | 0.748 | 0.822 | 0.835 | 1.01

MAPKAPK3, construct: Full length, human (from UniProt Q16644)
relative phosphorylation
Details | at +1 | at +2 | at +3 | at +4 | at -1 | at -2 | at -3 | at -4 | at -5
A fixed | 0.674 | 1.05 | 1.17 | 1.02 | 0.861 | 1.42 | 0.885 | 1.11 | 0.659
D fixed | 0.406 | 1.06 | 1.47 | 1.21 | 0.649 | 0.266 | 0.193 | 0.495 | 0.203
E fixed | 0.637 | 0.868 | 1.52 | 1.02 | 0.573 | 0.386 | 0.222 | 0.764 | 0.187
F fixed | 1.04 | 0.749 | 0.722 | 0.727 | 1.05 | 0.806 | 0.438 | 0.896 | 1.97
G fixed | 0.54 | 0.872 | 1.5 | 1.26 | 0.579 | 0.968 | 0.614 | 0.88 | 0.453
H fixed | 1.26 | 1.31 | 1.05 | 1.01 | 1.23 | 0.903 | 1.34 | 1.12 | 0.689
I fixed | 1.21 | 0.813 | 0.518 | 0.711 | 0.838 | 0.462 | 0.211 | 0.795 | 1.31
K fixed | 1.07 | 0.94 | 0.807 | 1.14 | 1.3 | 0.927 | 2.05 | 1.79 | 0.646
L fixed | 1.05 | 0.794 | 0.645 | 0.823 | 1.24 | 1.04 | 0.314 | 1.12 | 1.71
M fixed | 1.31 | 0.826 | 0.675 | 0.84 | 1.21 | 1.5 | 0.487 | 1.26 | 1.2
N fixed | 1.08 | 1.26 | 1.13 | 1.16 | 1.13 | 0.857 | 0.682 | 0.76 | 0.361
P fixed | 0.229 | 1.27 | 1.82 | 1.54 | 1.22 | 0.638 | 0.883 | 0.627 | 1.15
Q fixed | 1.21 | 1.13 | 1.01 | 1.15 | 0.973 | 2.92 | 0.919 | 1.13 | 0.688
R fixed | 1.7 | 1.26 | 0.851 | 1.04 | 1.23 | 1.6 | 6.2 | 1.64 | 1.41
V fixed | 1.45 | 0.974 | 0.707 | 0.758 | 0.99 | 0.724 | 0.252 | 0.872 | 1.13
W fixed | 0.878 | 0.795 | 0.66 | 0.919 | 0.716 | 0.786 | 0.796 | 0.804 | 2.1
Y fixed | 1.24 | 1.02 | 0.745 | 0.67 | 1.21 | 0.788 | 0.521 | 0.931 | 1.15
pThr fixed | 0.99 | 0.759 | 0.687 | 1.1 | 0.449 | 0.345 | 0.244 | 0.464 | 0.333
pTyr fixed | 1.79 | 0.934 | 1.05 | 0.812 | 0.732 | 0.334 | 0.233 | 0.572 | 0.563

VRK2, construct: Full length, human (from UniProt Q86Y07)
relative phosphorylation
Details | at +1 | at +2 | at +3 | at +4 | at -1 | at -2 | at -3 | at -4 | at -5
A fixed | 0.906 | 0.925 | 0.998 | 1.07 | 0.943 | 1 | 1.06 | 1.12 | 1.08
D fixed | 0.579 | 0.622 | 0.675 | 0.977 | 0.788 | 0.836 | 0.812 | 0.845 | 0.97
E fixed | 0.659 | 0.575 | 0.629 | 0.791 | 0.67 | 0.804 | 0.829 | 0.917 | 0.862
F fixed | 0.883 | 1.23 | 1.05 | 1.04 | 0.86 | 0.978 | 0.971 | 0.957 | 0.974
G fixed | 1.02 | 1.11 | 1.15 | 1.17 | 0.959 | 1.58 | 1.23 | 1.24 | 1.15
H fixed | 0.842 | 0.985 | 1.28 | 1.14 | 1.39 | 1.04 | 1.12 | 1.04 | 1.17
I fixed | 1.23 | 1.34 | 0.907 | 0.881 | 1.03 | 0.824 | 0.927 | 0.875 | 0.866
K fixed | 0.949 | 0.924 | 0.875 | 0.887 | 1.04 | 0.919 | 0.881 | 0.945 | 0.979
L fixed | 0.796 | 1.33 | 0.896 | 0.937 | 1.15 | 1.01 | 0.933 | 0.875 | 0.866
M fixed | 1.01 | 1.27 | 0.872 | 0.954 | 1.02 | 1.16 | 0.98 | 0.96 | 0.885
N fixed | 0.759 | 0.726 | 1.05 | 0.979 | 0.956 | 0.966 | 0.985 | 0.917 | 0.906
P fixed | 1.15 | 0.703 | 0.759 | 1.03 | 1.1 | 1.08 | 1.27 | 1.22 | 1.16
Q fixed | 1.13 | 0.873 | 0.875 | 0.905 | 0.914 | 0.969 | 0.878 | 0.887 | 0.922
R fixed | 1.57 | 0.836 | 1.37 | 0.937 | 1.06 | 1.06 | 1.06 | 1.04 | 1.05
V fixed | 1.53 | 1.07 | 0.935 | 0.912 | 1.22 | 0.877 | 0.936 | 0.996 | 0.974
W fixed | 1.04 | 1.3 | 1.6 | 1.32 | 0.876 | 0.964 | 1.06 | 1.11 | 1.07
Y fixed | 0.948 | 1.17 | 1.09 | 1.07 | 1.03 | 0.935 | 1.06 | 1.06 | 1.11
pThr fixed | 0.648 | 0.686 | 0.733 | 1.08 | 0.83 | 0.792 | 0.923 | 1 | 1.01
pTyr fixed | 0.826 | 0.883 | 0.914 | 1.4 | 0.861 | 0.8 | 0.982 | 1.02 | 0.981
